B1: truncated KpFtsZ (residues 11-316) (domain or fragment, Klebsiella pneumoniae, UniProt W9BCK7 11-316, looked up)
chain: AVIKVIGVGGGGGNAVEHMVRERIEGVEFFAVNTDAQALRKTAVGQTIQIGSGITKGLGAGANPEVGRNAADEDREALRAALDGADMVFIAAGMGGGTGTGAAPVVAEVAKDLGILTVAVVTKPFNFEGKKRMAFAEQGITELSKHVDSLITIPNDKLLKVLGRGISLLDAFGAANDVLKGAVQGIAELITRPGLMNVDFADVRTVMSEMGYAMMGSGVASGEDRAEEAAEMAISSPLLEDIDLSGARGVLVNITAGFDLRLDEFETVGNTIRAFASDNATVVIGTSLDPDMNDELRVTVVATGIG
B2: FtsZ from Klebsiella pneumoniae, full length, tag removed (natural protein, UniProt W9BCK7 1-383, looked up)
chain: MFEPMELTNDAVIKVIGVGGGGGNAVEHMVRERIEGVEFFAVNTDAQALRKTAVGQTIQIGSGITKGLGAGANPEVGRNAADEDREALRAALDGADMVFIAAGMGGGTGTGAAPVVAEVAKDLGILTVAVVTKPFNFEGKKRMAFAEQGITELSKHVDSLITIPNDKLLKVLGRGISLLDAFGAANDVLKGAVQGIAELITRPGLMNVDFADVRTVMSEMGYAMMGSGVASGEDRAEEAAEMAISSPLLEDIDLSGARGVLVNITAGFDLRLDEFETVGNTIRAFASDNATVVIGTSLDPDMNDELRVTVVATGIGMDKRPEITLVTNKQVQQPVMDRYQQHGMSPLTQEQKPAAKVVNDNTPQTAKEPDYLDIPAFLRKQAD

Assays:
crystal structure = molecular target: the molecule itself; experiment: crystal structure
cryo-EM structure = molecular target: the molecule itself; experiment: cryo-EM structure

Row | Protein | binding result (crystal structure) | binding result (cryo-EM structure)
1 | B1 | binds | 
2 | B2 |  | binds
